Laboratory results: US20130122005A1 (published 2013)
Residue numbers refer to the chain shown, from its start. Each block holds one binder with its values, some of them ahead of it.

How the values were obtained:
Test in all cases: cell-based or functional assay
[1] = target: T1, human IGF-2 (human, UniProt P01344 25-91)
[2] = target: T2, human IGF-1 (human, UniProt P05019 49-118)
[3] = target: T1, human IGF-2; remark: listed apart in the source
[4] = target: T2, human IGF-1; remark: listed apart in the source
[5] = target: T1, human IGF-2; remark: listed apart in the source

T2 sequence (P05019 49-118): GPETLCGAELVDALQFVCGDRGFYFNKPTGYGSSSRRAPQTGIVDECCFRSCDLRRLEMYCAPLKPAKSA
T1 sequence (P01344 25-91 limits assumed): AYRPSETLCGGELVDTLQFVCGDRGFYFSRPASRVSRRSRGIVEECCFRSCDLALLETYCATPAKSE

IC50, IGF-2 induced COLO 205 cell proliferation [1]: 0.632 µg/mL | IC50, IGF-2 induced MCF7 cell proliferation [1]: 0.0812 µg/mL | IC50, IGF-1 induced COLO-205 cell proliferation [2]: 0.165 µg/mL | IC50, IGF-1 induced MCF7 cell proliferation [2]: 0.0386 µg/mL | IC50, IGF-2 (100 ng/mL) induced IGF-1R phosphorylation, cell-based ELISA [3]: 1.12 µg/mL | IC50, IGF-1 (20 ng/mL) induced IGF-1R phosphorylation, cell-based ELISA [4]: 0.09 µg/mL | IC50, IGF-2 (100 ng/mL) induced IR-A phosphorylation, cell-based ELISA [5]: 0.82 µg/mL
B1: antibody 60833 (antibody, human IgG1, lambda, V domains shown)
VH: QVELVESGGGLVQPGGSLRLSCAASGFTFTSYWMSWVRQAPGKGLELVSSITSYGSFTYYADSVKGRFTISRDNSKNTLYLQMNSLRAEDTAVYYCARNMYTHFDSWGQGTLVTVSS
VL: DIVLTQPPSVSGAPGQRVTISCSGSSSNIGSNSVSWYQQLPGTAPKLLIYDNSKRPSGVPDRFSGSKSGTSASLAITGLQSEDEADYYCQSRDTYGYYWVFGGGTKLTVLG

IC50, IGF-2 induced COLO 205 cell proliferation [1]: 0.576 µg/mL | IC50, IGF-2 induced MCF7 cell proliferation [1]: 0.0782 µg/mL | IC50, IGF-1 induced COLO-205 cell proliferation [2]: 0.135 µg/mL | IC50, IGF-1 induced MCF7 cell proliferation [2]: 0.0241 µg/mL
B2: antibody 60814 (antibody, human IgG1, lambda, V domains shown)
VH: QVELVESGGGLVQPGGSLRLSCAASGFTFSNYWMHWVRQAPGKGLEWVSGISGWSSWTYYADSVKGRFTISRDNSKNTLYLQMNSLRAEDTAVYYCARFGIDAYTKVYFDYWGQGTLVTVSS
VL: DIELTQPPSVSVAPGQTARISCSGDNIPLKYVSWYQQKPGQAPVLVIHDDNKRPSGIPERFSGSNSGNTATLTISGTQAEDEADYYCSSWDTLDIFNVFGGGTKLTVLG

IC50, IGF-2 induced COLO 205 cell proliferation [1]: 0.101 µg/mL | IC50, IGF-2 induced MCF7 cell proliferation [1]: 0.0408 µg/mL | IC50, IGF-1 induced COLO-205 cell proliferation [2]: 0.217 µg/mL | IC50, IGF-1 induced MCF7 cell proliferation [2]: 0.054 µg/mL
B3: antibody 60819 (antibody, human IgG1, lambda, V domains shown)
VH: B2 VH
VL: B2 VL with S88Q, W90Y, T92Y, L93F, D94P, I95K, N97V
